For one molecule, Kd results are on record in patent US20030032785, “High-affinity oligonucleotide ligands to vascular endothelial growth factor (VEGF)” (published 2003).

The data set has as its target VEGF165 (vascular endothelial growth factor, 165 aa form) (Homo sapiens, UniProt P15692-4 P15692-4:27-191). The data set is described as follows: filter. The settings on record: tags: gift of N. Ferrara, Genentech; chain copies: 2 stated. Here is the method: Nitrocellulose Filter Binding Assays. Oligonucleotides bound to proteins can be effectively separated from the unbound species by filtration through nitrocellulose membrane filters (Yarus, M. and Berg, P. (1970) Anal. Biochem. 35:450-465; Lowary, P. T. and Uhlenbeck, O. C. (1987) Nucleic Acids Res. 15:10483-10493; Tuerk, C. and Gold, L. (1990) supra). Nitrocellulose filters (0.2 μm pore size, Schleicher and Schuell, Keene, N.H.) were secured on a filter manifold and washed with 4-10 ml of buffer; Following incubations of ³²P labeled RNA with serial dilutions of the protein for 10 min at 37° C. in buffer (PBS) containing 0.01% human serum albumin (HSA), the solutions were applied to the filters under gentle vacuum in […] aliquots and washed with 5 ml of PBS. The filters were then dried under an infrared lamp and counted in a scintillation counter.
To this end, certain ligands were synthesized and tested for binding affinity. The binding studies were performed using the protocols described in Example 1.

Chain of VEGF165 (vascular endothelial growth factor, 165 aa form) (P15692 other isoform, or with tags, fused parts or gaps): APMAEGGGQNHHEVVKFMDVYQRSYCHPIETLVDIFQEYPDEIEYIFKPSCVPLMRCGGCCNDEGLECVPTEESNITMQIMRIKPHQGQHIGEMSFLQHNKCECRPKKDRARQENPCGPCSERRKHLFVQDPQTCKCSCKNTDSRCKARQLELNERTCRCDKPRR

A word on the Kd: it is the constant that tells how readily two partners part at equilibrium. Low readings indicate tighter binding, high ones weaker binding. On to ACCCUGAUGGUAGACGCCGGGGUG (ssRNA, 2'-NH2 at all C and U; G9,A12,A14 2:1 mixture 2'-OMe:2'-OH) [NX-203], for which binding was characterised by a dissociation constant (Kd) of 0.2 nM.
